Biological target: purified human folate receptor (hFR) (human) (UniProt P15328)
UniProt P15328, sequence (P15328 25-234): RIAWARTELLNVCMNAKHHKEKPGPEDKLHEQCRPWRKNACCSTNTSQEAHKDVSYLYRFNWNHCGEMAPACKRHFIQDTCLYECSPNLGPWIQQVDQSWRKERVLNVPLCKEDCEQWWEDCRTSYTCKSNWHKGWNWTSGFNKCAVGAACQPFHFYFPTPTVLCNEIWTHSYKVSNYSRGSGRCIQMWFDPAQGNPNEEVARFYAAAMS

wild-type (native) Clostridium septicum alpha toxin
hFR Binding (percent of wild type) (% of wild type): 100
